This is an account of results in patent US7138236B1, “Interactions of ATM, ATR or DAN-PK with p53” (Kudos Pharmaceuticals Limited, priority 1997, dated 2006).

Square brackets hold non-standard residues; d marks the D form. pT = C[C@@H](OP(=O)(O)O)[C@H](N)C(=O)O

This experiment concerns the target Mdm-2 (Homo sapiens, UniProt Q00987). Description: Mdm-2 binding of p53-derived peptides by ELISA analysis. The settings on record: peptides containing p53 residues 11 to 25, unphosphorylated or phosphorylated on Ser15 and/or Thr18. As to the method: To test whether phosphorylation on Ser15 or Thr18 of p53 affects its interaction with Mdm-2, phosphorylated and unphosphorylated p53-derived peptides were generated and were assessed for Mdm-2 binding by ELISA analysis. The four peptides used contained p53 residues 11 to 25 (in the sequence (SEQ ID NO:11) NH2-SGSGEPPLSOETFSDLWKL-COOH; where the underlined sequence is that derived from p53) that were unphosphorylated (1); phosphorylated on residue equivalent to p53 residue Ser15(2); phosphorylated on residue equivalent to p53 residue Thr18(3); or phosphorylated on two residues, equivalent to p53 residue Ser15 and Thr18(4). […] We therefore conclude that phosphorylation on Thr18 of p53 has a dramatic effect on its interaction with […] and that phosphorylation of this site is likely to play a key role in regulating p53 responses in vivo.

Chain of Mdm-2 (Q00987 whole entry, species assumed, the tested form may be a part): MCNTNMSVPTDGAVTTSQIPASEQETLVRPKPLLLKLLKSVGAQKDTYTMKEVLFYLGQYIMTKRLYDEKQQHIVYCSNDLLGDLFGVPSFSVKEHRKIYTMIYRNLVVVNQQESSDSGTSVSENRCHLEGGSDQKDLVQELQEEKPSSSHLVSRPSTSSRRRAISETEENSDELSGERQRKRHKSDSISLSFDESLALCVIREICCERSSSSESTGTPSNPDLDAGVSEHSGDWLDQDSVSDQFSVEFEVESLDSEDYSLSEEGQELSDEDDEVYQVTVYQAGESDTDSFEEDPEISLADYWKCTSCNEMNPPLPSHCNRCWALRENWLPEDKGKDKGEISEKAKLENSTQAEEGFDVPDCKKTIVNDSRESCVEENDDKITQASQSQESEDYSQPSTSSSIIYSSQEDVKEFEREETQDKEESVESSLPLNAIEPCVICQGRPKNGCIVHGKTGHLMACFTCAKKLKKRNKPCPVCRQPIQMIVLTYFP

Consider “NH2-SGSGEPPLSOETFSDLWKL-COOH [3] (H-SGSGEPPLSQE[pT]FSDLWKL-OH; SMILES CC(C)C[C@H](NC(=O)[C@H](CCCCN)NC(=O)[C@H](Cc1c[nH]c2ccccc12)NC(=O)[C@H](CC(C)C)NC(=O)[C@H](CC(=O)O)NC(=O)[C@H](CO)NC(=O)[C@H](Cc1ccccc1)NC(=O)[C@@H](NC(=O)[C@H](CCC(=O)O)NC(=O)[C@H](CCC(N)=O)NC(=O)[C@H](CO)NC(=O)[C@H](CC(C)C)NC(=O)[C@@H]1CCCN1C(=O)[C@@H]1CCCN1C(=O)[C@H](CCC(=O)O)NC(=O)CNC(=O)[C@H](CO)NC(=O)CNC(=O)[C@@H](N)CO)[C@@H](C)OP(=O)(O)O)C(=O)O; UniProt P04637 11-25, looked up, fragment) [compound 3, peptide containing p53 residues 11 to 25, phosphorylated on residue equivalent to Thr18]”, for which the “Mdm-2 binding of p53-derived peptides” value is recorded as “inhibited dramatically”. The entry for “NH2-SGSGEPPLSOETFSDLWKL-COOH [compound 4]” is “inhibited dramatically”; for “NH2-SGSGEPPLSOETFSDLWKL-COOH [peptide 1] (H-SGSGEPPLSQETFSDLWKL-OH; UniProt P04637 11-25, looked up, fragment) [peptide containing p53 residues 11 to 25, unphosphorylated]” it is “occurred effectively”. On to “NH2-SGSGEPPLSOETFSDLWKL-COOH [peptide 2] (EPPLSQETFSDLWKL; phospho-Ser15; N-terminal SGSG linker; UniProt P04637 11-25, looked up, fragment) [peptide containing p53 residues 11 to 25, phosphorylated on residue equivalent to Ser15]”, for which the “Mdm-2 binding of p53-derived peptides” value was “only impaired slightly”.
